Results published in publication PMC8207216.

Target: APE1 wild type (human) (UniProt P27695)
Assay: EMSA
Details: 1 mM EDTA (no catalysis); apparent KD; N at position 16 of strand 1 = abasic ribonucleotide analog (tetrahydrofuran with 2'-OH); EMSA: 2 nM DNA, 0-20 nM APE1, 50 mM Tris pH 8, 1 mM EDTA, 0.2 mg/ml BSA, 1 mM DTT, 5% sucrose, 30 min on ice, 10% native gel

Sequence of UniProt P27695 (P27695 whole entry): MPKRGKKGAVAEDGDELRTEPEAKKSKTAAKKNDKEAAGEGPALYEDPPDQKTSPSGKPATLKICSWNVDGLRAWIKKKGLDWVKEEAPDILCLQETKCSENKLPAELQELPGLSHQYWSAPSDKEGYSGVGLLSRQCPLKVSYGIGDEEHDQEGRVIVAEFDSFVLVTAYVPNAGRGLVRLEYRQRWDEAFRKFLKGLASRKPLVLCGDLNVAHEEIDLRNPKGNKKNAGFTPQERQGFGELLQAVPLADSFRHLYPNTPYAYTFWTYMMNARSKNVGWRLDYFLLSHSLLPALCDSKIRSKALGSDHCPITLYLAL

Sequence: CGTTCGCTGATGCGCNCGACGGATCCGCAT / ATGCGGATCCGTCGAGCGCATCAGCGAACG [30-mer rAP DNA]
- Kd: 2.9 nM
